Target: T1, FAP (Homo sapiens, UniProt Q12884)
T1 construct: the extracellular domain of FAP was cloned with a His-6 tag; made in house
T1 sequence (Q12884 26-760 limits assumed): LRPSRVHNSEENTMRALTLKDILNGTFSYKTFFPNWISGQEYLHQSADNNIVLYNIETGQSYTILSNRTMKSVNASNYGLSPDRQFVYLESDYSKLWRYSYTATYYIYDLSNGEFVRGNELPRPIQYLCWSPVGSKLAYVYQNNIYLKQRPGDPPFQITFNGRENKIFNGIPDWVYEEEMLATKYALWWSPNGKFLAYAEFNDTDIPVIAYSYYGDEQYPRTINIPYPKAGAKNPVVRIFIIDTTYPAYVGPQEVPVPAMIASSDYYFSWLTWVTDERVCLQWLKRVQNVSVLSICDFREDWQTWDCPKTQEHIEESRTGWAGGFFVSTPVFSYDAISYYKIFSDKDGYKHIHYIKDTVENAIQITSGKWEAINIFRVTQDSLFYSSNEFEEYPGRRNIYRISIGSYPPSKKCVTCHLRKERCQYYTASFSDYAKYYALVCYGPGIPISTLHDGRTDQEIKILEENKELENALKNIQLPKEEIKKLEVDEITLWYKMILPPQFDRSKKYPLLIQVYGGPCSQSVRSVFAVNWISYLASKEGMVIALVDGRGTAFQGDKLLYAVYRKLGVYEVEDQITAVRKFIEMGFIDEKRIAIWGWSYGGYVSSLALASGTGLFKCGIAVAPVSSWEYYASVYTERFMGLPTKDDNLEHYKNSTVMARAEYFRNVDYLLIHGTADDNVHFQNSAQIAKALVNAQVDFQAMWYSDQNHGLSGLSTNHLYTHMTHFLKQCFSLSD
Test: LC-MS/MS cleavage map of FAP digest of 100 kDa recombinant human gelatin
Type: biochemical
Settings: 100 kDa gelatin digest; for Percentage: share of all occurrences
Protocol: Human collagen I (Becton Dickinson, Franklin Lakes, N.J.) and recombinant human gelatins of 100 KDa and 8.5 KDa (Fibrogen, San Francisco, Calif.) were dissolved in reaction buffer to a final concentration of 100-300 μg/ml. 0.5-1 μg of FAP was added per 100 μgs of protein substrate. Digestion was done for 4-6 hrs at 37° C. As a positive control trypsin digestion was used. As a negative control, protein solutions were incubated either with BSA or buffer only. Peptide fragments of a size <30 KDa were purified using 30 KDa Microcon spin filter (Millipore, Billerica, Mass.).
Peptides obtained from FAP/gelatin digests were dried using a speedvac (Eppendorf), resuspended in LC/MS loading buffer (3% ACN, 0.1% formic acid), and analyzed using nano-flow LC/MS/MS on an Agilent 1100 series nano-LC system (Agilent) coupled to an LCQ Duo ion trap mass spectrometer (ThermoFinnigan). Peptides were pre-concentrated on a 5 mm Zorbax C18 trap column (Agilent) and then eluted onto a 100×0.075 mm custom-packed Biobasic C18 (ThermoElectron) reversed phase capillary column connected to a laser-pulled electrospray ionization emitter tip (New Objective) at a flowrate of 300 nl/min Peptides were eluted the nanospray source of the LCQ (Proxeon, Denmark) using the following gradient: 0% B at 0 min, 5% B at 8 min, 45% B at 50 min, 90% B at 55 min, 90% B at 60 min (B=0.1% formic acid in acetonitrile) at a spray voltage of 2.5 kV. The LCQ was operated in data-dependent mode using the Xcalibur software (ThermoFinnigan) in which every MS scan (400-1800 m/z) was followed by MS/MS scans (400-1800 m/z) on the 3 most intense ions using an isolation window of ±1.5 Da. Ions selected for MS/MS fragmentation were dynamically excluded for 30 s.
MS/MS data were searched against a collagen FASTA database using the SEQUEST search algorithm built into the Bioworks Browser (ThermoFinnigan) allowing for the variable modification of Methionine oxidation. Peptides were initially filtered in a charge dependent manner using an XCorr filter of 1.5, 2, and 2.5 for singly, doubly, and triply charged peptides. All MS/MS spectra used to identify peptides were manually inspected for validation of y and b-ion series. To quantify the relative abundance of each identified peptide we compared the ion current for each of the observed peptide parent ions from the MS spectra. The contribution of each parent ion to the total ion current was extracted and integrated over the peptide elution peak.
To resolve each particular mass fragment a Liquid Chromatograpy (LC) and Tandem mass spectroscopy (MS-MS) [LC-MS-MS] method was developed. Using this method, peptide fragments from FAP digests of the 8.5 kDa and 100 kDa recombinant gelatin were time-resolved by nano reverse phase LC (FIGS. 12 and 14) and then sequenced using an ion trap mass spectrometer operating in MS/MS mode. Initial methodological issues were worked out using the 8.5 kDa fragment before analyzing the entire 100 kDa protein. MS/MS spectra were searched against the 8.5 kDa and 100 kDa gelatin sequences using the SEQUEST algorithm with no cleavage specificity. Most of the identified cleavage sites in both sized gelatins occurred after Proline. However, FAP cleavage sites in these gelatins were not restricted to Proline alone. FAP was also found to cleave after Ala (e.g. A/A, A/G, A/P, A/R), Asp (e.g. D/G, D/T), Gly (e.g. G/A, G/E, G/L, G/Q, G/P, G/V), Glu (i.e., E/P), Lys (i.e., K/A, K/G), Ser (e.g. S/P) and Val (e.g. V/G).
To identify the most preferentially cleaved sites, we relatively quantified the abundance of each of the identified peptides by integrating the ion current generated by each peptide throughout the chromatogram. After identification of a peptide from a MS/MS spectrum, we extracted the ion current for the parent mass of the ion from the total MS ion chromatogram using a 1.5 Da tolerance window, and then integrated under the peak (FIGS. 12 and 14). […]

Substance: A.AGRVGPPGP.S: FAP cleavage fragment, 100 kDa recombinant human gelatin
- Occurences: 2
- Percentage: 0.95

Substance: A.GPAGPPGP.I: FAP cleavage fragment, 100 kDa recombinant human gelatin
- Occurences: 1
- Percentage: 0.48

Substance: A.GPPGAPGAPGAPGP.V: FAP cleavage fragment, 100 kDa recombinant human gelatin
- Occurences: 1
- Percentage: 0.48

Substance: A.PGAPGAPGPVGPAGKSGDRGETGP.A: FAP cleavage fragment, 100 kDa recombinant human gelatin
- Occurences: 4
- Percentage: 1.90

Substance: A.PGAPGPVGPAGKSGDRGETGP.A: FAP cleavage fragment, 100 kDa recombinant human gelatin
- Occurences: 2
- Percentage: 0.95

Substance: A.PGDKGESGP.S: FAP cleavage fragment, 100 kDa recombinant human gelatin
- Occurences: 2
- Percentage: 0.95

Substance: A.PGPVGPAGKSGDRGETGP.A: FAP cleavage fragment, 100 kDa recombinant human gelatin
- Occurences: 1
- Percentage: 0.48

Substance: D.GQPGAKGEPGDAGAKGDAGPPGP.A: FAP cleavage fragment, 100 kDa recombinant human gelatin
- Occurences: 2
- Percentage: 0.95

Substance: D.GRPGPPGPPGARGQAG.V: FAP cleavage fragment, 100 kDa recombinant human gelatin
- Occurences: 2
- Percentage: 0.95

Substance: E.PGKQGPSGASGERGPPGP.M: FAP cleavage fragment, 100 kDa recombinant human gelatin
- Occurences: 5
- Percentage: 2.38

Substance: G.PPGADGQPGAKGEPGDAGAKGDAGPPGP.A: FAP cleavage fragment, 100 kDa recombinant human gelatin
- Occurences: 2
- Percentage: 0.95

Substance: G.PPGAPGAPGAPGPVGPAGKSGDRGETGP.A: FAP cleavage fragment, 100 kDa recombinant human gelatin
- Occurences: 7
- Percentage: 3.33

Substance: G.PPGPAGAPGDK.G: FAP cleavage fragment, 100 kDa recombinant human gelatin
- Occurences: 2
- Percentage: 0.95

Substance: G.PPGPAGAPGDKGESGP.S: FAP cleavage fragment, 100 kDa recombinant human gelatin
- Occurences: 3
- Percentage: 1.43

Substance: G.PPGPAGPAGPPGP.I: FAP cleavage fragment, 100 kDa recombinant human gelatin
- Occurences: 1
- Percentage: 0.48

Substance: G.PSGEPGKQGPSGASGERGPPGP.M: FAP cleavage fragment, 100 kDa recombinant human gelatin
- Occurences: 1
- Percentage: 0.48

Substance: G.PTGARGAPGDRGEPGPPGP.A: FAP cleavage fragment, 100 kDa recombinant human gelatin
- Occurences: 6
- Percentage: 2.86

Substance: P.AGEKGSPGADGPAGAPGTPGP.Q: FAP cleavage fragment, 100 kDa recombinant human gelatin
- Occurences: 7
- Percentage: 3.33

Substance: P.AGFAGPPGADGQPGAKGEPGDAGAKGDAGPPGP.A: FAP cleavage fragment, 100 kDa recombinant human gelatin
- Occurences: 8
- Percentage: 3.81

Substance: P.AGNPGADGQPGAKGANGAPGIAGAPGFPGARGP.S: FAP cleavage fragment, 100 kDa recombinant human gelatin
- Occurences: 4
- Percentage: 1.90

Substance: P.AGPKGEPGSPGENGAPG.Q: FAP cleavage fragment, 100 kDa recombinant human gelatin
- Occurences: 1
- Percentage: 0.48

Substance: P.AGPPGAPGAPGAPGP.V: FAP cleavage fragment, 100 kDa recombinant human gelatin
- Occurences: 8
- Percentage: 3.81

Substance: P.AGPPGAPGAPGAPGPVGP.A: FAP cleavage fragment, 100 kDa recombinant human gelatin
- Occurences: 2
- Percentage: 0.95

Substance: P.AGPPGAPGAPGAPGPVGPAGKSGDRGETGP.A: FAP cleavage fragment, 100 kDa recombinant human gelatin
- Occurences: 6
- Percentage: 2.86

Substance: P.AGPPGEAGKPGEQGVPGDLGAPGP.S: FAP cleavage fragment, 100 kDa recombinant human gelatin
- Occurences: 6
- Percentage: 2.86

Substance: P.AGPPGFPGAVGAKGEAGP.Q: FAP cleavage fragment, 100 kDa recombinant human gelatin
- Occurences: 2
- Percentage: 0.95

Substance: P.AGPPGPIGNVGAPGAKGARGSAGPPGATGFPGAAGRVGPPGP.S: FAP cleavage fragment, 100 kDa recombinant human gelatin
- Occurences: 3
- Percentage: 1.43

Substance: P.AGPTGARGAPGDRGEPGPPGP.A: FAP cleavage fragment, 100 kDa recombinant human gelatin
- Occurences: 6
- Percentage: 2.86

Substance: P.AGRPGEVGPPGPPGP.A: FAP cleavage fragment, 100 kDa recombinant human gelatin
- Occurences: 11
- Percentage: 5.24

Substance: P.GGPPGPKGNSGEPGAPGSKGD.T: FAP cleavage fragment, 100 kDa recombinant human gelatin
- Occurences: 1
- Percentage: 0.48

Substance: P.GPPGAPGP.Q: FAP cleavage fragment, 100 kDa recombinant human gelatin
- Occurences: 1
- Percentage: 0.48

Substance: P.GPSGNAGPPGPP.G: FAP cleavage fragment, 100 kDa recombinant human gelatin
- Occurences: 1
- Percentage: 0.48

Substance: P.IGPPGPAGAPGDKGESGP.S: FAP cleavage fragment, 100 kDa recombinant human gelatin
- Occurences: 6
- Percentage: 2.86

Substance: P.KGAAGEPGKAGERGVPGPPGAVGPAGKDGEAGAQGPPGP.A: FAP cleavage fragment, 100 kDa recombinant human gelatin
- Occurences: 1
- Percentage: 0.48

Substance: P.PGAPGAPGAPGPVGPAGKSGDRGETGP.A: FAP cleavage fragment, 100 kDa recombinant human gelatin
- Occurences: 2
- Percentage: 0.95

From patent US20140087991A1, “PEPTIDE PRODRUGS” (The Johns Hopkins University, priority 2006, published 2014)
